This experiment has as its target Andes virus Gc, wild type (Andes virus strain CHI-7913). As to the kind of experiment: sucrose gradient sedimentation.

As a reminder, the stoichiometry N is the number of molecules, sites or subunits per partner or assembly. The substance “Andes virus Gc, wild type (natural protein)” registered a stoichiometry N of 3.

The values above are taken from paper PMC5082683.
